Biological target: full-length JDP2 protein fused to the yeast GAL4 DNA-binding domain (GAL4-DBD-JDP2) (rat, UniProt Q78E65 1-163)
Experiment: two-hybrid

full-length JDP2 protein fused to the yeast GAL4 DNA-binding domain (GAL4-DBD-JDP2), sequence (Q78E65 whole entry, the tested form may be a part): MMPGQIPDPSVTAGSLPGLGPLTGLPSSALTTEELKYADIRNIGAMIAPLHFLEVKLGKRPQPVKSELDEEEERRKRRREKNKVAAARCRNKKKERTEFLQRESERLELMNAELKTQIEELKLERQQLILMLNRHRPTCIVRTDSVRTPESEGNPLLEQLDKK

B1: wild-type CHOP10 (expression plasmid, in NIH3T3 cells) (natural protein)
chain: MAAESLPFSFGTLSSWELEAWYEDLQEVLSSDENGGTYVSPPGNEEEESKIFTTLDPASLAWLTEEEPEPAEVTSTSQSPHSPDSSQSSLAQEEEEEDQGRTRKRKQSGHSPARAGKQRMKEKEQENERKVAQLAEENERLKQEIERLTREVEATRRALIDRMVNLHQA
fold potentiation of the 5 × UAS luciferase reporter (two-hybrid): 25 fold

Source: publication PMC2441799 (Nucleic Acids Research, 2008)
